Measured values: the DeepSol protein solubility set

assay: soluble on expression in E. coli; label from the status in PepcDB or PDB records

Sequence	soluble on expression in E. coli
MGSDKIHHHHHHMAEQMRRVARLFGDWPETIIWTCLEGTMGDIYVDDSQSPQSALALYGRQSFFGFLAGQPHRDLLKICEGKNIILVPQNQAWSDLIEEVYGDGVRFFTRYATKKDTEFDLGHLQKLVDDLPESFDMKLIDRNLYETCLVEEWSRDLVGNYIDVEQFLDLGLGCVILHKGQVVSGASSYASYSAGIEIEVDTREDYRGLGLAKACAAQLILACLDRGLYPSWDAHTLTSLKLAEKLGYELDKAYQAYEWR	not soluble
MSLSEVQPIPVTVSQYSYYSDKNYPKRRTMEDAHVICDPLIEVEGRVYSLYAIFDGHRGRTAAQHCAKIVKDKIKEVLQRKDEGFEEMMQDAMYEMDMSLKENGIEYSGCCALMCIIEIKDKKRIIHMANCGDSCGIIIGTNEVIPMSEEHKATNENEAKRIKESGGMIINGRVSGDVAVTRGLGDHHLKQWVVSEPFVKEVEWQEDYKYIVLGCDGLWDTLNGNQIKEVLESNNCEFTSSAKSLTQLAIGKGSTDNITTIVLKLEGHHHHHH	soluble
MISTPPVARNIMRCMSDQLKLDQQICFQLYTGSRLMQRMYRVYFDQWGITYSQYLVLLLLWEKDRQTISELSDPLDLDSGTLSPLLRRMEANGFITREHEQSDYRKVVVCLTTRGRRLKTKAKKMNDELNDMLGFDDADLAAVTRVLEKINPSAAI	not soluble
AGGGYWHTSGREILDANNVPVRIAGINWFGFETCNYVVHGLWSRDYRSMLDQIKSLGYNTIRLPYSDDILKPGTMPNSINFYQMNQDLQGLTSLQVMDKIVAYAGQIGLRIILDRHRPDCSGQSALWYTSSVSEATWISDLQALAQRYKGNPTVVGFDLHNEPHDPACWGCGDPSIDWRLAAERAGNAVLSVNPNLLIFVEGVQSYNGDSYWWGGNLQGAGQYPVVLNVPNRLVYSAHDYATSVGPQTWFSDPTFPNNMPGIWNKNWGYLFNQNIAPVWLGEFGTTLQSTTDQTWLKTLVQYLRPTAQYGADSFQWTFWSWNPDSGDTGGILKDDWQTVDTDKDGYLAPIKSSIFDPV	soluble
MGHHHHHHSHMKKLICISLYEDLSMTTYDLSKVDNAELIGIVENASEGTLFVFTCDRPNGSSVIMCPGGGFLKTNLENEGIDFAEWFTKLGITYIVFKYRMPHGNPDVPEQDTRLALKVVREKFPEFCDKLGVMGASIGGYLATFSATLLPDDEKPDFQILMYPVVSVDDRLTHFPCRERMFGHSYSPDKMEQYSPIEHITSGTPAAFIVAAADDAVVSPLNGIMYAARLQKADIPISLHIYPAGGHGFGYNDSFVYKQEWLQELGEWLAKL	soluble
MSINIEQAIIHEISQDSQGQLRCRLRPQPLLNGQAVEMMLEELHQTYTSKSGKGFGYFGIHGDDGEANPAFANALKEYRAGDLGFVEFTGQASKLLQEELAKYDFSQGGFLLMSCYTSMASDYLFVALLSAKSSMTVLDDMELSQNNHLDLNNIQLAARIDLTELQADKDSRKYISFIRGRAGRKVADFFLDFMGCVEGVNTKAQNKTLMNAVEDFVASSDLTKEERQQCRNKVFEYCSERFDEGADIEIKDLADELADQGMESFYDFARGGSYELDEEFPADKSTLRQLKKFSGTGGGVTISFDGGHLGQRVIYDPISDTILIKGVPANLKDQLDRRLKGE	soluble
MALPRITQKEMTEREQRELKTLLDRARIAHGRVLTNSETNSIKKDYIDKLMVEREAEAKKARQLKKKQAYKPDPEASFSWSANTSTRGRR	soluble
MDIAQDWNGIPVPANPGNGMTWQLQDNVSDSFNYTSSEGNRPTAFTSKWKPSYINGWTGPGSTIFNAPQAWTNGSQLAIQAQPAGNGKSYNGIITSKNKIQYPVYMEIKAKIMDQVLANAFWTLTDDETQEIDIMEGYGSDRGGTWFAQRMHLSHHTFIRNPFTDYQPMGDATWYYNGGTPWRSAYHRYGCYWKDPFTLEYYIDGVKVRTVTRAEIDPNNHLGGTGLNQATNIIIDCENQTDWRPAATQEELADDSKNIFWVDWIRVYKPVAVSGGGNNSLEHHHHHH	soluble
MGLKPCDYPDIKHGGLYHENMRRPYFPVAVGKYYSYYCDEHFETPSGSYWDHIHCTQDGWSPAVPCLRKCYFPYLENGYNQNHGRKFVQGKSIDVACHPGYALPKAQTTVTCMENGWSPTPRCIRVKTCSKSSIDIENGFISESQYTYALKEKAKYQCKLGYVTADGETSGSITCGKDGWSAQPTCI	soluble
MGSDKIHHHHHHMMLTTKLIYCCLVSIVLHPINNLNPKPYISLFNLQGILLPTQFSHSLTSLDAFAPRLLAWFEINGRHDLPWQQHQTDTPNPYIVWLSEVMLQQTQVTTVLPYFARFMASFPTVQDLAAAEWDTVAEHWAGLGYYARARNLHKGAKQLVEVIDETGEYPTTLAGWEAISGVGPSTAGAIMAMGLHRYGVICDGNVKRVLTRWAAIDGDITKSATTKELWALAERLTPKENSGLFAQAMMDMGATLCTRSKPACLLCPLQDDCLAHAQGRETDYPVKAKKQPKPSKFSNALLIENENGEILWLQRPDNGIWGGLWSLPLAFIEKISGKVAVKDADKNKNKELIAANDNQLLEVASNEKVYETEFTTAEQIINEWINKNELVAKSVNDTLLDDSPIKHSLTHFHWYLTPQTVNLNTKQAQEITEALQAGEININWLNADDAQATLGLPKAMVKILE	not soluble
MASWSHPQFEKGASLDSPTFGCTDSPVRRERGQKAVFCGLTSIVWLHRKMQDAFFLVVGSRTCAHLLQAAAGVMIFAEPRFGTAVLEEQDLAGLADAHKELDREVAKLLERRPDIRQLFLVGSCPSEVLKLDLDRAAERLSGLHAPHVRVYSYTGSGLDTTFTQGEDTCLAAMVPTLDTTEAAELIVVGALPDVVEDQCLSLLTQLGVGPVRMLPARRSDIEPAVGPNTRFILAQPFLGETTGALERRGAKRIAAPFPFGEEGTTLWLKAVADAYGVSAEKFEAVTAAPRARAKKAIAAHLETLTGKSLFMFPDSQLEIPLARFLARECGMKTTEIATPFLHKAIMAPDLALLPSNTALTEGQDLEAQLDRHEAINPDLTVCGLGLANPLEAKGHATKWAIELVFTPVHFYEQAGDLAGLFSRPLRRRALLNGGAA	soluble
MAKLRPYYEESQSAYDISDDFFALFLDPTWVYTCAYFERDDMTLEEAQLAKVDLALDKLNLEPGMTLLDVGCGWGGALVRAVEKYDVNVIGLTLSRNHYERSKDRLAAIGTQRRAEARLQGWEEFEENVDRIVSFEAFDAFKKERYLTFFERSYDILPDDGRMLLHSLFTYDRRWLHEQGIALTMSDLRFLKFLRESIFPGGELPSEPDIVDNAQAAGFTIEHVQLLQQHYARTLDAWAANLQAARERAIAVQSEEVYNNFMHYLTGCAERFRRGLINVAQFTMTK	soluble
MGHHHHHHSHMRKLVIPKYYGRPSIGLALFGCTNRPFYHVCVFPDRALGRRYEGNILEQVGTFDPLPNQKNEKLVALNFGRLKYWIGERNAHISVPVLELLGERRNCLSGLFPIHPKSFIRAKDNRALIADQQLKVAAEAAEAEKVAQEQASTGAAATSHPQ	soluble
MKLSIVIVNYRVPYFLEQCLLSVRKSAQGIDTEVWVVDNNSGDGSVEYLQSRFPEVHFVANEENVGFSRANNQAIRLSKGQYVLLLNPDTLIGESTLRTVVDFMDSKPNAGGLGVKMLNGHGRFLPESKRGFPSPWVSFCKLSGLNRLFPHSSRFNRYHLSYLSRDEVHKVEVLSGAFMLMRREALDKVGLLDERFFMYGEDIDLSYRLILGGYDNYYYPTPILHYKGESSSVSDVKYLRSFYGAMGLFFDKYYRNRMNPLLHGLINVVIKARTALALMLRSLRKVPAAEKPAKIFYWHPSEGEAAISAYHDRSHILINTDEVTCDRLLLTMEKLADRKHTFHLTNDTTKRVISP	not soluble
MSLKTVEDNRTSLTDQVLKGTLIQDKLYESNKYYPIYGSSELGKDDPFNPAIALNKHNANKKAFLLGAGGSTDLINAIELASQYDKLKGKKLTFIISPQWFTNHGLTNQNFDARMSQTQINQMFQQKNMSTELKRRYAQRLLQFPHVHNKEYLKSYAKNPKETKDSYISGFKENQLIKIEAIKSLFAMDKSPLEHVKPATKPDASWDEMKQKAVEIGKADTTSNKFGIRDQYWKLIQESKRKVRRDYEFNVNSPEFQDLELLVKTMRAAGADVQYVSIPSNGVWYDHIGIDKERRQAVYKKIHSTVVDNGGKIYDMTDKDYEKYVISDAVHIGWKGWVYMDEQIAKHMKGEPQPEVDKPKNEGHHHHHH	soluble
